Test results: paper PMC4407285 (Cell Reports, 2015)

B1: Candida glabrata Slx4 CCD3 (residues 647-726) (domain or fragment, UniProt Q6FJQ6 647-726, looked up)
chain: SNQKKVGVTSKSEVFEFLTHLVKQEPDLLTRIYCFQPITMNDLINKLRNKDSFVDLIDDGTIREWTDKLGICIRSNNLKD

Tests used:
[1] = target: Candida glabrata Slx1 (Candida glabrata) (UniProt Q6FML9); experiment: SEC-MALS
[2] = target: Candida glabrata Slx1 (Candida glabrata) (UniProt Q6FML9); experiment: AUC
Candida glabrata Slx1 = target: T1, Candida glabrata Slx1 (Candida glabrata, UniProt Q6FML9 1-312); experiment: co-purification
T1 sequence: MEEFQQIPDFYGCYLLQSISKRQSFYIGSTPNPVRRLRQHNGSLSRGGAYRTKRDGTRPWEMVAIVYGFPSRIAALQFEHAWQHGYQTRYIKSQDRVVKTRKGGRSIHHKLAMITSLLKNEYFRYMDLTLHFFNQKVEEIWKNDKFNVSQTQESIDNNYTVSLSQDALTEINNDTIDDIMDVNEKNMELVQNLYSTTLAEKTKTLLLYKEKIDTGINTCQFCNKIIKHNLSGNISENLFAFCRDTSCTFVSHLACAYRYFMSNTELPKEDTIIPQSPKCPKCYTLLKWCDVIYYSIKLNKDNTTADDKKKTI

Row | Molecule | stoichiometry N [1] | stoichiometry N [2] | binding result (Candida glabrata Slx1)
1 | Candida glabrata Slx4 conserved C-terminal domain (domain or fragment) | 1 | 1 | –
2 | B1 | – | – | binds
